This passage reports Kd results from paper PMC9978964.

Experiment in all cases: BLI
A general note: BLI is a label-free optical method that tracks binding on a fibre tip over time.

For test [1], the target named is biotinylated FXR NES peptide (amino acids 401–454), T442 phosphorylated (human).
In test [2] the target is biotinylated FXR NES peptide (amino acids 401–454), T442 non-phosphorylated (human).
Test [3] has as its target biotinylated FXR NLS peptide (amino acids 191–230), K217 non-acetylated (human).
Test [4] concerns the target biotinylated FXR NLS peptide (amino acids 191–230), K217 acetylated (human).

For “CRM1 protein used in the BLI assay (from UniProt O14980 1-1071) (natural protein)”, the values for the Kd in test [1] and in test [2] were 181 nM and 90.1 nM, respectively.
Take “KPNA3 protein used in the BLI assay (from UniProt O00505 1-521) (natural protein)”: the Kd in test [3] worked out at 17.4 nM; in test [4], 51 nM.

What is called Kd is a measure of binding affinity in units of concentration.
